Laboratory results from publication PMC3835959 (Cell reports, 2013).

B1: EscN ATPase, full-length, hexameric (enzyme)
chain: MISEHDSVLEKYPRIQKVLNSTVPALSLNSSTRYEGKIINIGGTIIKARLPKARIGAFYKIEPSQRLAEVIAIDEDEVFLLPFEHVSGMYCGQWLSYQGDEFKIRVGDALLGRLIDGIGRPMESNIVAPYLPFERSLYAEPPDPLLRQVIDQPFILGVRAIDGLLTCGIGQRIGIFAGSGVGKSTLLGMICNGASADIIVLALIGERGREVNEFLALLPQSTLSKCVLVVTTSDRPALERMKAAFTATTIAEYFRDQGKNVLLMMDSVTRYARAARDVGLASGEPDVRGGFPPSVFSSLPKLLERAGPAPKGSITAIYTVLLESDNVNDPIGDEVRSILDGHIVLTRELAEENHFPAIDIGLSASRVMHNVVTSEHLRAAAECKKLIATYKNVELLIRIGEYTMGQDPEADKAIKNRKLIQNFIQQSTKDISSYEKTIESLFKVVA
B2: CesAB–EspA heterodimeric chaperone–substrate complex (complex)
chain 1: MSIVSQTRNKELLDKKIRSEIEAIKKIIAEFDVVKESVNELSEKAKTDPQAAEKLNKLIEGYTYGEERKLYDSALSKIEKLIETLSPARSKSQSTMNQRNRNNRKIV
chain 2: MDTSTTASVASANASTSTSMAYDLGSMSKDDVIDLFNKLGVFQAAILMFAYMYQAQSDLSIAKFADMNEASKESTTAQKMANLVDAKIADVQSSSDKNAKAQLPDEVISYINDPRNDITISGIDNINAQLGAGDLQTVKAAISAKANNLTTTVNNSQLEIQQMSNTLNLLTSARSDMQSLQYRTISGISLGK
B3: CesAB^Y64A/R68A–EspA complex (complex)
chain 1: MSIVSQTRNKELLDKKIRSEIEAIKKIIAEFDVVKESVNELSEKAKTDPQAAEKLNKLIEGYTAGEEAKLYDSALSKIEKLIETLSPARSKSQSTMNQRNRNNRKIV
chain 2: MDTSTTASVASANASTSTSMAYDLGSMSKDDVIDLFNKLGVFQAAILMFAYMYQAQSDLSIAKFADMNEASKESTTAQKMANLVDAKIADVQSSSDKNAKAQLPDEVISYINDPRNDITISGIDNINAQLGAGDLQTVKAAISAKANNLTTTVNNSQLEIQQMSNTLNLLTSARSDMQSLQYRTISGISLGK

Experiments:
[1] = target: the molecule itself
[2] = target: B1; experiment: NMR titration

Row | Binder | stoichiometry N [1] | Kd [2]
1 | B1 | 6 | –
2 | B2 | – | ~3000 nM
3 | B3 | – | > 80000 nM
